The values below come from patent US20070118934A1.

The target of test [1] is human rhinovirus serotype HRV-39. The test is described as follows: cell-based or functional assay.
Test [2] shares this target.
The target in test [3] is mouse (anti-human ICAM) monoclonal antibody.

With “IC1-5D/IgA (ICAM/IgA fusion, gift of Dr. Tim Springer; Martin et al. 1993) (from UniProt P05362 28-480; P01876 103-353) (Fc fusion)”, in test [1], the IC50, cytopathic effect (CPE) assay, HRV-39 on HeLa S3 cells turned out to be 0.12 µg/mL and the fold lower IC50 than soluble ICAM-1, CPE assay was found to be 11.3 fold.

“soluble human ICAM-1 (from UniProt P05362 28-480) (receptor)”: the IC50 (read off the curve) in test [2] is 40 nM; in test [3], 0.8 µg/mL. The IC50, cytopathic effect (CPE) assay, HRV-39 on HeLa S3 cells in test [1] stood at 1.35 µg/mL.

Substance ICAM-IgA (Fc fusion) showed an IC50 (read off the curve) in test [2] of 3 nM.
